Our source for the Kd values is publication PMC5141509, “Identification of protein structural elements responsible for the diversity of sequence preferences among Mini-III RNases”.

In one data set the test system is Ct(FpH)MiniIII (chimera). The data set is described as follows: filter binding. To be noted: Enzyme-specific cleavage buffer (Table S1, mostly not in material) with MgCl2 replaced by 1 mM CaCl2; 1.5 nM 33P-dsRNA, 50 ul, 1 h at room temperature ….
Another data set deals with FpMiniIII. Description: filter binding. To be noted: Enzyme-specific cleavage buffer (Table S1, mostly not in material) with MgCl2 replaced by 1 mM CaCl2; 1.5 nM 33P-dsRNA, 50 ul, 1 h at room temperature ….
In a further data set the test system is SeMiniIII. The data set is described as follows: filter binding. To be noted: Enzyme-specific cleavage buffer (Table S1, mostly not in material) with MgCl2 replaced by 1 mM CaCl2; 1.5 nM 33P-dsRNA, 50 ul, 1 h at room temperature ….
Data set [1] relates to Ct(FpHL)MiniIII (chimera). The data set is described as follows: filter binding. To be noted: Enzyme-specific cleavage buffer (Table S1, mostly not in material) with MgCl2 replaced by 1 mM CaCl2; 1.5 nM 33P-dsRNA, 50 ul, 1 h at room temperature ….
Another data set deals with Ct(FpL)MiniIII (chimera). Description: filter binding. To be noted: Enzyme-specific cleavage buffer (Table S1, mostly not in material) with MgCl2 replaced by 1 mM CaCl2; 1.5 nM 33P-dsRNA, 50 ul, 1 h at room temperature ….
Another data set relates to CtMiniIII. Description: filter binding. To be noted: Enzyme-specific cleavage buffer (Table S1, mostly not in material) with MgCl2 replaced by 1 mM CaCl2; 1.5 nM 33P-dsRNA, 50 ul, 1 h at room temperature ….
In another data set the target is T1, BsMiniIII (Bacillus subtilis, UniProt O31418 1-143).
T1 sequence: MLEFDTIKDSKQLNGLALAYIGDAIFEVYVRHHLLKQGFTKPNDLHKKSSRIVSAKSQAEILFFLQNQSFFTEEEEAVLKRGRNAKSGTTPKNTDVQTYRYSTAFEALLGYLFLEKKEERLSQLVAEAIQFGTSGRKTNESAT
Description: filter binding; 1 mM Ca2+ (no Mg2+); Enzyme-specific cleavage buffer (Table S1, mostly not in material) with MgCl2 replaced by 1 mM CaCl2; 1.5 nM 33P-dsRNA, 50 ul, 1 h at room temperature; nitrocellulose filter; one-site fit. To be noted: protein: recombinant; tags: N-terminal His6 (pET28a, NdeI/XhoI); chain copies: 2; label: 33P 5' end label; blunt.

A value given as a limit tells only on which side of the number the result lay.

As to “CCUGUCCCCCGCCGAAGUCGCUGCAAUU / AAUUGCAGCGACUUCGGCGGGGGACAGG [NEG]”, the Kd in the data set on Ct(FpH)MiniIII (chimera) worked out at 1940 nM; in the data set with FpMiniIII it was 19900 nM; with SeMiniIII, 190 nM; in data set [1], 2250 nM; in the data set with Ct(FpL)MiniIII (chimera), 1800 nM; in the data set on CtMiniIII, 1340 nM.

Consider “GCUGGGAGGGAAACCUCUCUCUCUGGCC / GGCCAGAGAGAGAGGUUUCCCUCCCAGC [POS-ACCU]”, for which the Kd with Ct(FpH)MiniIII (chimera) is 2620 nM; in the data set with FpMiniIII it was greater than 100000 nM; in the data set with SeMiniIII, 160 nM; in data set [1], 2170 nM; in the data set on Ct(FpL)MiniIII (chimera), 1330 nM; in the data set on CtMiniIII it was 1140 nM.

B1: NEG (dsRNA)
RNA 1: CCUGUCCCCCGCCGAAGUCGCUGCAAUU
RNA 2: AAUUGCAGCGACUUCGGCGGGGGACAGG
With B1, the Kd with BsMiniIII came out at 70 ± 10 nM.

B2: POS-ACCU (dsRNA)
RNA 1: GCUGGGAGGGAAACCUCUCUCUCUGGCC
RNA 2: GGCCAGAGAGAGAGGUUUCCCUCCCAGC
For the molecule B2, the Kd in the data set with BsMiniIII was determined as 140 ± 20 nM.

Usually Kd stands for the free concentration of one partner at which half of the binding sites on the other are occupied at equilibrium, for simple one-to-one binding.
